How the values were obtained:
apc_human APC [1] = target: apc_human APC (UniProt P25054)
apc_human APC [2] = target: apc_human APC (UniProt P25054); remark: listed apart in the source

Chain of apc_human APC (P25054 whole entry): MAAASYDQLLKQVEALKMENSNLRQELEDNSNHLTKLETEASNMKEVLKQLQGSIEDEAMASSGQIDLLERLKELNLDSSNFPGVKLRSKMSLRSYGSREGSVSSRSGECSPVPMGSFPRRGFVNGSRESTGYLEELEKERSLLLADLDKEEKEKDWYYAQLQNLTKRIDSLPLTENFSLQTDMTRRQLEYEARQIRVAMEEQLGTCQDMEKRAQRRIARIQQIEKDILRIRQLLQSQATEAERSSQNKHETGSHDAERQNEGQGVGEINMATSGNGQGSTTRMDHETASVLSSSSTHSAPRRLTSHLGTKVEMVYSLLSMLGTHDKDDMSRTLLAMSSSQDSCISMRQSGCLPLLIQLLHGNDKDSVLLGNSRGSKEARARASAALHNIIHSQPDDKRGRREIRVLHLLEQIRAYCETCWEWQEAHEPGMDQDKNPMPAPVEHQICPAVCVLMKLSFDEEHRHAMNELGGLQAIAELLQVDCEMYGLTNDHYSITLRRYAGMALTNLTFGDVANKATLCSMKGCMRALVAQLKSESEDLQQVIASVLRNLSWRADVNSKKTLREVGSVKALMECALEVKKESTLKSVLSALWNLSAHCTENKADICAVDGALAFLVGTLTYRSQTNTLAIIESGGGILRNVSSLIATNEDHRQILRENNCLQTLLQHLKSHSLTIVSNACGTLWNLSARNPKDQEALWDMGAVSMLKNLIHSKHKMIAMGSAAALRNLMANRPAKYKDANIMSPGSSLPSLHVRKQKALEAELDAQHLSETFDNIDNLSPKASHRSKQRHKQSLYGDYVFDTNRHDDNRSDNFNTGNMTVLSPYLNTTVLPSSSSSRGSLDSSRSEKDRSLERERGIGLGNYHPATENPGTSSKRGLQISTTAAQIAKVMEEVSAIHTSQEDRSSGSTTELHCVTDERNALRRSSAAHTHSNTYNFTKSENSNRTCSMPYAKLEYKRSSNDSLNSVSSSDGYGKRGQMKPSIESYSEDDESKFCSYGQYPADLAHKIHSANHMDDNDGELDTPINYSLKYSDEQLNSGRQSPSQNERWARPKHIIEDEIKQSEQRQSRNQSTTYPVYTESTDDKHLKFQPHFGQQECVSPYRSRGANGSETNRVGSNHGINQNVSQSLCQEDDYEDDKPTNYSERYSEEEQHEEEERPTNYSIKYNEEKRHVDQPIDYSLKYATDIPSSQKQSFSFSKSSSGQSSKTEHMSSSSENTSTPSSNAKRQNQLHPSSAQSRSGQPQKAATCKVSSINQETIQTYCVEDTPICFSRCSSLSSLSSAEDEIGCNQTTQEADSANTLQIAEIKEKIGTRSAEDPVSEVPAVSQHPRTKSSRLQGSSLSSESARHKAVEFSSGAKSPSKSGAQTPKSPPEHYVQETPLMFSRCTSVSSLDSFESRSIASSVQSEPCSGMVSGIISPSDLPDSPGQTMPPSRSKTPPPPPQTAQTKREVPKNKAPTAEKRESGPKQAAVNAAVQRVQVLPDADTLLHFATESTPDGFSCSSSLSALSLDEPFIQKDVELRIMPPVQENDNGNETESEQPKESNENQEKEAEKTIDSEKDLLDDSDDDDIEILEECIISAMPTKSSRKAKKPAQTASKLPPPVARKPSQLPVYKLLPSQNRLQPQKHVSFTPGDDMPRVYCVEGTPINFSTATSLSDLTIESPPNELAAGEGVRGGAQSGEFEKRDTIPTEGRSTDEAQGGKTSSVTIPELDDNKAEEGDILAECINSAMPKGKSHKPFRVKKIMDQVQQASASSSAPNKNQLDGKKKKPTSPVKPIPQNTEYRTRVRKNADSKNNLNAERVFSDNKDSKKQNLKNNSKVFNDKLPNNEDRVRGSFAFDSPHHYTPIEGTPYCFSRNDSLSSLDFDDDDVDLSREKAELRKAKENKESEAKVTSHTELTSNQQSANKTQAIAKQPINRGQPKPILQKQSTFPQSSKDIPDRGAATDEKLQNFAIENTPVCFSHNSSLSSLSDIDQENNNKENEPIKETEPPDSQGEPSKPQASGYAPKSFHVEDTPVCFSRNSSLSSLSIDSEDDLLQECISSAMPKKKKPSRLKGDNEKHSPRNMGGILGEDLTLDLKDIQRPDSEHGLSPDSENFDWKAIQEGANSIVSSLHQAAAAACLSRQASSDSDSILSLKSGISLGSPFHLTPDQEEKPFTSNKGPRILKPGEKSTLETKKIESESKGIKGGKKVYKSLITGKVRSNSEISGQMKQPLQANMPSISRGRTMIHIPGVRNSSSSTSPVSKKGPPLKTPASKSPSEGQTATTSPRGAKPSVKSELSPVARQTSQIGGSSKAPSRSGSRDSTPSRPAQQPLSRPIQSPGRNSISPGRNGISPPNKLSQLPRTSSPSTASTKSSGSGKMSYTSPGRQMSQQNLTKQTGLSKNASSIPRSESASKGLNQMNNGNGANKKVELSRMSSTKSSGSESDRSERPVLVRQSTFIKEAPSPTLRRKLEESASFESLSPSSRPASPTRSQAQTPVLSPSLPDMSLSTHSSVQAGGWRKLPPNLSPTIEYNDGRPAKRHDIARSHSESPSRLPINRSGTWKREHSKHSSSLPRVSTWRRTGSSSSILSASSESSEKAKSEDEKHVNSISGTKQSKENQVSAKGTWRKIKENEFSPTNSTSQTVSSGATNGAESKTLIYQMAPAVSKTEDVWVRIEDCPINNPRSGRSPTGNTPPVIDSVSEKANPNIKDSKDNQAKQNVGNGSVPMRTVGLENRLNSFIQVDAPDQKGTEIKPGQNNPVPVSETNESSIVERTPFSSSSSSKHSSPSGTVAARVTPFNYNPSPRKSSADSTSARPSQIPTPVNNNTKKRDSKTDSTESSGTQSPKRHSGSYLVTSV
Chain of Disks large homolog 1 (Homo sapiens) (Q12959 whole entry, looked up, stated change not applied): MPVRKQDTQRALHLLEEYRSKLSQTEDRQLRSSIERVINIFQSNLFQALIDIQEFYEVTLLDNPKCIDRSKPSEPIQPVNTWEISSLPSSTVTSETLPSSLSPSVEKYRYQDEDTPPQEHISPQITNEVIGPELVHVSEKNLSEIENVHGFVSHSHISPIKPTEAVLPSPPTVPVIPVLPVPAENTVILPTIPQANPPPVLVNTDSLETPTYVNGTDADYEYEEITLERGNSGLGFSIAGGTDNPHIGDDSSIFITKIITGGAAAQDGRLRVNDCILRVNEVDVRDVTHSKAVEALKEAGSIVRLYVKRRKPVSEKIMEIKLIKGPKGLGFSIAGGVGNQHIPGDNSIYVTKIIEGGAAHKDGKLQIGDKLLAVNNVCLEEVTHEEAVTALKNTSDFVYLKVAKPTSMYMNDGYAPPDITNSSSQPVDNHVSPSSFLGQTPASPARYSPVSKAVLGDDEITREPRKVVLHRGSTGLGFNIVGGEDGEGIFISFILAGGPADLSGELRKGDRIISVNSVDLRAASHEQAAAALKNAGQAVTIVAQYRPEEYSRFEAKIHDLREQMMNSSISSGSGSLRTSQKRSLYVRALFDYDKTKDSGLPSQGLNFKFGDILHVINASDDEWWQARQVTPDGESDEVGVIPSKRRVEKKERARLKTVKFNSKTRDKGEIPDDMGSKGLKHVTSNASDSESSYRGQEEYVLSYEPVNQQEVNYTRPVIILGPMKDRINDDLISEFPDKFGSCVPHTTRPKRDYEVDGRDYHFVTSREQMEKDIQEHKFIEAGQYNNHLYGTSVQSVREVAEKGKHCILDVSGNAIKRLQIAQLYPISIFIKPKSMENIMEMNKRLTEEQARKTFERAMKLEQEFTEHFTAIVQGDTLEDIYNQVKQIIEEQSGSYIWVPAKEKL

“Disks large homolog 1 (Homo sapiens) (from UniProt Q12959) Q340P” was tested, and the “effect of a mutation on the interaction” value (apc_human APC [1]) was “decreasing interaction strength” and the “effect of a mutation on the interaction” value (apc_human APC [2]) was “disrupting interaction strength”.

Reference: IntAct's records for PubMed 21858148
